This is an account of results in US20180291107A1 (Eli Lilly, published 2018).

One assay deals with T1, mouse CSF-1R (mouse, UniProt P09581 20-511, limits assumed).
T1 construct: also called murine target protein (of the CSF-1R antibody); murine CSF-1R
T1 sequence (looked up): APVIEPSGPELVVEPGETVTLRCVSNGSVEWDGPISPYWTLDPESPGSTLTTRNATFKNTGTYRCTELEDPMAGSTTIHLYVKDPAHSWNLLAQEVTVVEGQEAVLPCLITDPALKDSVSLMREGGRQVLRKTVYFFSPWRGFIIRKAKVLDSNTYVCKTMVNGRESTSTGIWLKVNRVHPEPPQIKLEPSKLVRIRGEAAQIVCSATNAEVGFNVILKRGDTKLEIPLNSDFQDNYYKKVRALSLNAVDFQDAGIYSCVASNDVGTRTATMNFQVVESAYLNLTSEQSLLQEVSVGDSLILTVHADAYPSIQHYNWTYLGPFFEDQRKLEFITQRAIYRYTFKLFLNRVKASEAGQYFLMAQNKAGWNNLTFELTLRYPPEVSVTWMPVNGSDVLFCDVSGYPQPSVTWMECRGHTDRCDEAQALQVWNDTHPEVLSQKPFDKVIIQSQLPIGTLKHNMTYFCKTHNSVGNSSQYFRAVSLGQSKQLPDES
Briefly: not described.

A further assay addresses T2, mouse PD-L1 (mouse, UniProt Q9EP73 19-238, limits assumed).
T2 construct: also called murine target protein (of the PD-L1 antibody); murine PD-L1
Briefly: not described.

For assay [1], the target named is T3, Soluble human PD-L1-Fc fusion protein (human, UniProt Q9NZQ7 19-239, limits assumed).
T3 construct: not shown: Fc part
T3 sequence (Q9NZQ7 19-239 limits assumed): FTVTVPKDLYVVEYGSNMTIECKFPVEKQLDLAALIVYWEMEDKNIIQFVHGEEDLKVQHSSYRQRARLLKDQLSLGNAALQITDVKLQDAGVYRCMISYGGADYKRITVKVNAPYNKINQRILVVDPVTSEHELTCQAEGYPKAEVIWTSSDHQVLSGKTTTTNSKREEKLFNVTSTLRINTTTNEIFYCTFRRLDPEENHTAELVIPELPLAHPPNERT
Put plainly: SPR (Biacore T200), antibody immobilised, PD-L1-Fc as analyte, 37 C, 1:1 model. On the procedure:
The kinetics and equilibrium dissociation constant (KD) for human PD-L1 is determined for anti-PD-L1 antibodies of the present invention using surface plasmon resonance (Biacore).
Immobilization of anti-PD-L1 antibodies of the present invention as ligand on to sensor chip surface is performed at 25° C. Soluble human PD-L1-Fc fusion protein is injected as analyte at concentrations ranging from 0.0123 nM-9 nM. The analysis is performed at 37° C. The contact time for each sample is 180 sec at 30 μl/min. The dissociation time was 240-1500 seconds. The immobilized surface is regenerated for 18 seconds with 0.95 M NaCl/25 mM NaOH at […], and then stabilized for 30 seconds. Binding kinetics are analyzed using the Biacore T200 Evaluation software (Version 3.0). Data are referenced to a blank flow cell, and the data are fit to a 1:1 binding model.
On the technique in general: SPR reads the build-up and loss of mass on a sensor chip optically.

T2 sequence (Q9EP73 19-238 limits assumed): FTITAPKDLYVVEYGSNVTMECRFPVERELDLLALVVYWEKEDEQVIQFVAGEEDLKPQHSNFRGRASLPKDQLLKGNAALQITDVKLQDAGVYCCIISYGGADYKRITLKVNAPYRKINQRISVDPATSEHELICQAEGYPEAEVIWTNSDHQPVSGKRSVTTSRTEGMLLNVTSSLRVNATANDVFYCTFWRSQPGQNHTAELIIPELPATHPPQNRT

B1: CS7 (antibody, V domains shown)
VH: DRQMVESGGGLVRPGRSLKLSCAASGFTFSNYYMAWVRLAPSKGLEWVASISPSGDNTYYPDSVQGRFTISRDNAETTLYLQVDSLRSEDTATYYCATRHYGYSFFDYWGQGVLVTVSS
VL: DTVLTQSPALAVSPGERVTISCRASESVSTLIHWYQQKPGQQPKLLIFLASHLESGVPARFSGSGSGTDFTFTIDPVEADDTATYYCQQSWNDPPTFGGGTKLELK
notes: Rat antibody generated from a hybridoma; also called IMC-CS7; rat anti-mouse CSF-1R antibody
Take B1: the binding result in the assay with mouse CSF-1R was “binds”.

B2: Antibody A (antibody, human IgG1, lambda, V domains shown)
VH: QVQLVQSGAEVKKPGSSVKVSCKASGGTFSSYAISWVRQAPGQGLEWMGGIIPIFGTANYAQKFQGRVTITADKSTSTAYMELSSLRSEDTAVYYCARSPDYSPYYYYGMDVWGQGTTVTVSS
VL: QSVLTQPPSASGTPGQRVTISCSGSSSNIGSNTVNWYQQLPGTAPKLLIYGNSNRPSGVPDRFSGSKSGTSASLAISGLQSEDEADYYCQSYDSSLSGSVFGGGIKLTVLG
notes: also called Anti-PD-L1 antibody
As for B2, the binding result with mouse PD-L1 was “no binding”. Besides, in assay [1], binding was characterised by a dissociation constant (Kd) of 0.082 nM.

B3: Antibody 1 (antibody, human IgG1, kappa, V domains shown)
VH: QDQLVESGGGVVQPGRSLRLSCAASGFTFSSYGMHWVRQAPGEGLEWVAVIWYDGSNKYYADSVKGRFTISRDNSKNTLYLQMNSLRAEDTAVYYCARGDYEVDYGMDVWGQGTTVTVAS
VL: AIQLTQSPSSLSASVGDRVTITCRASQGISNALAWYQQKPGKAPKLLIYDASSLESGVPSRFSGSGSGTDFTLTISSLQPEDFATYYCQQFNSYPWTFGQGTKVEIKR
notes: also called Anti-CSF-1R antibody
With B3, the binding result in the assay with mouse CSF-1R was “no binding”.

Usually Kd stands for the equilibrium constant for the complex coming apart. Higher therefore signals lower affinity.
